The series is described as follows: yeast display, Sf9 membrane polyspecificity reagent, FACS + sequencing; frameworks hold sequencing errors. The method in brief: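 After 36–48 hours of galactose induction, yeast (Saccharomyces cerevisiae BJ5465) displaying a synthetic nanobody library were stained at 4 °C for 1 hour with 10% biotinylated, detergent-solubilized Sf9 membrane reagent. Streptavidin microbeads enriched the stained cells before FACS sorting into low and high (top ~1%) gates on anti-HA and streptavidin fluorescence. Each clone's polyreactivity label reflects its gate of origin.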
“QVQLVESGGGLVQAGGSLRLSCAASGSIITINAMGWYRQAPGKERELVAAISKRGGSTYYADSVKGRFTISSDNGKHTVYLQLNSLKPEDTAFYYCNAREYIHWRGALGLFGSWGQGTQVNVSS”: the “polyreactivity (PSR sort gate)” value was “high polyreactivity”.

As to “QVQLVESGGGLVQAGGSLRLSCAASGSIFSYYVMGWYRQAPGTERELVAAISYSGGRTYYADSVKGRFTISRDNAKNTVYLQMNSLKPEDTAVYYCAASRRVGEVSYYYWGQGTQVTVSS”, the “polyreactivity (PSR sort gate)” value was “high polyreactivity”.

As to “QVQLVESGGGLVQAGGSLRLSCAASGIIFNPYALGWYRHAPGKERELVATISRGGRTNYADSVKGRFTISRDNAKNTVYLQLHSLKPEDTAVYYCNKTASGRYHYDYWGQGTQVTVSS”, the “polyreactivity (PSR sort gate)” value is recorded as “low polyreactivity”.

Regarding “QVQLVESGGGLVQAGGSLRLSCAASGRTFPSYAMGWYRQAPGKERELVAAISRSGGSTYYADSVKGRFTISRDNAKNTVYLQMNSLKPEDTAVYYCAAVSRVHFSYIYDYWGQGTQVTVSS”, the “polyreactivity (PSR sort gate)” value is given as “high polyreactivity”.

As to “QVQLVESGGGLVQAGGSLRLSCSASGFTFRVNALGWYRQAPGKERELVAAITYSGGSTYYADSVKGRFTISRDNAKNTVYLQMNSLNPEDTAVYYCAAGYFFPRLRFRNYAYGYWGQGTQVTVST”, the “polyreactivity (PSR sort gate)” value is “high polyreactivity”.

Turning to “QVQLVESGGGLVQAGGSLRLSCAASGSTFWFYAMGWYRQSPGKERELVAVISNSGSTYYADSVKGRFTISRDNAKNTVYLQMNSLKPEDTAVYYCNKDGGGDSYWYDYWGQGTQVTVSS”, the “polyreactivity (PSR sort gate)” value was “low polyreactivity”.

For “QVQLVESGGGLVQAGGSLRLSCAASGFIFYKNAMGWYRQAPGKERELVAAINWSGGSTYYADSVKGRFTISRDNAKNTVYLQMNSLKPEDTAVYYCAVVVYSGYRHYYWGQGTQVTVSS”, the “polyreactivity (PSR sort gate)” value is reported as “high polyreactivity”.

For “QVQLVESGGGLFQAGGSLSLRCAASGSSFDDYTMGWYRQATGKETELLAAISSAGSTNYADSVKGRFTISRDNAKNTVYLQMNILKPEDTAVYSFAAQVHPLRYDYWGQGTQVTVSS”, the “polyreactivity (PSR sort gate)” value is given as “low polyreactivity”.

“QVQLVESGGGLVQAGGSLRLSCAASGFIFRYYVMGWYRQAPGKERELVAAITGSGGSTYYADSVKGRFTISRDNAKNTVYLQMNSLKPEDTAVYYCAARVWPIVQNYYWGQGTQVTVSS”: the “polyreactivity (PSR sort gate)” value is recorded as “high polyreactivity”.

In the case of “QVQLVESGGGLVQAGGSLRLSCAASGSTFRWNAMGWYRQAPGKERELVAAISNGGSTNYADSVKGRFTISRDNAKNSVYFQMNSLKPEDTAVYYCATDGWYGQHYYDYDFDYYYWGQGTQVTVSS”, the “polyreactivity (PSR sort gate)” value is “low polyreactivity”.

Consider “QVQHVESGGGLVQAGGTLRLSSAASGSTYRWYAMGSYRQAPGKERELVAAITFRGGRTYYADSVKGRFTISRDNAKNTVYLQMNSLKPEDTAVYYFNAVTYSSPYRFDYWGQGTQVTVSS”, for which the “polyreactivity (PSR sort gate)” value was “low polyreactivity”.

Take “QVQLVESGGGLVQAGGSLRLSCAASGFTFWSYGMGWYRQAPGKERELVAAISWSGGRTYYADSVKGRFTISRDNAKNTVYLQMNSLKPDDTAVYYCAAQPYYYFDEYTQYDYWGQGTQVTVSS”: the “polyreactivity (PSR sort gate)” value was “high polyreactivity”.

With “QVQLVESGGGLVQAGGSLRLSCAASGRIFRSYAMGWYRQAPGKERELVAAISGSGGSTYYADSVKGRFTISRDNAKNTVYLQMNSLKPEDTAVYYCNRARGASYHGQSDYWGQGTQVTVSS”, the “polyreactivity (PSR sort gate)” value is listed as “high polyreactivity”.

With “QVQLVESGGGLVQAGGSLRLSCAASGRILYGNAMGWYRKAPGKERELVAAITRRGGSTYYADSVKGRFTISRDNAKNTVYLQMNSLKPEDTAVYYCNKVVGYRDTDFDYWGQGTQVTVSS”, the “polyreactivity (PSR sort gate)” value is listed as “high polyreactivity”.

As for “QVQLVESGGGLVQAGGSLRLSCAASGFIFAANAMGWYRQAPGKEMELVARIRSTGRTSYADSVKGRFTISRDNAKNTVYLQMNSLKPEDTAVYYCATDYYRYRDYAYYWLDYNYWGQGTQVTVSS”, the “polyreactivity (PSR sort gate)” value was “high polyreactivity”.

For the sequence “KVQVVESGGGFVQAGGSLRLSCAASGSTFVINAMGCYRQAPGKERELVAAITWGGGRTYYADSVKGRFTISRDNEKNTVYFQMNSLKPEDTAVYYCAAVGSGWKGDYWGQGTQVNVSS”, the “polyreactivity (PSR sort gate)” value is reported as “low polyreactivity”.

For “QVQLVESGGGLVQAGGSLRLSCAASGSTFPIYAMGWYRQAPGKERELVAAITWRGGSRTYYADSVKGRFTISRDNAKNTVYLQMNSLKPEDTAVYYCAAEYQWPLYGYWGQGTQVTVSS”, the “polyreactivity (PSR sort gate)” value is “low polyreactivity”.

“QVQLVESGGGLVQAGGSLRLSCAASGRIFQYYVMGWYRQAPGKERELVAAITSGGGTKYADSVKGRFTISRDNAKNTVYLQMIRLKPEDTAVYYCAAAWFDQYSRYDYWGQCTQVTVSS”: the “polyreactivity (PSR sort gate)” value is “low polyreactivity”.

As for “QVQLVESGGGLVQAGGSLRLSCAASGRIFRFYAMGWSSQAPGKERELVAAISTSGRTNYADSVKGRFTISRDNAKNTVYLQMNSLKPEDTAVYYCAAGTVLQGWSGAYGYWGQGTQVTVSS”, the “polyreactivity (PSR sort gate)” value was “high polyreactivity”.

“QVQLVESGGGLVQAGGSLRLRCAASGSIFYRNPMGWYRQAPGKESELVAAITSRGGRTYYADSVKGRFTISRDNAKNTVYLQMNSLKPEDTAVYYCNKRDVYSTSDYDYWGQGTQVTVSS”: the “polyreactivity (PSR sort gate)” value was “high polyreactivity”.

“QVQLVESGGGLVQAGGSLRLSCADSGRTFYPNAMGWYRQAPGKERELVARIRQSGTSTYYADSVKGRFTISRDNAKNTVYLQMNSLKPEDTAVYYCAARYAVGYPPYRYYYWGQGTQVTVSS”: the “polyreactivity (PSR sort gate)” value was “high polyreactivity”.

Take “QVQLVESGGGLVQAGGSLRLSCAASGSIQGKNAMRWYRPAPGKERELVAAISTRGGSTYYADSVKGRFTISRDNAKNSVYFQMNSLKPEDTAVYYCNARWREYKAKWGSRYDYWGQGTQVTVSS”: the “polyreactivity (PSR sort gate)” value is given as “high polyreactivity”.

Regarding “QVQLVESGGGLVQAGGSLRLSCAASGSIFGYYTMGLYRQAPGKERELVATINWSGGSTYYADSVKGRFTISRDNAKNTVYLQMNSLKPEDTAVYYCAKTRPYLRYWDSSTYDYWGQGTQVTVSS”, the “polyreactivity (PSR sort gate)” value was “high polyreactivity”.

Consider “QVQLVESGGGLVQAGGSLRLSCAASGSTFGGNAMGWYRQAPGKERELVAVISKRGGSTYYADSVKGRFTISRDNAKNTVYLQMNSLKAEDTAVYYCAATYSRYWSPTYDYWGEGTQVTVSS”, for which the “polyreactivity (PSR sort gate)” value was “high polyreactivity”.

Consider “QVQLVESGGGLVQAGGSLRLSCAASGLILYRYAMGWYRQAPGKERELVAAITTSGSSTFYADSVKGRFTISRDNAKNTVYLQMNSLKPEDTAVYYCAATRPRYGIYWYDYWGQGTQVTVSS”, for which the “polyreactivity (PSR sort gate)” value was “high polyreactivity”.

With “QVQLVESGGGLVQAGGSLRLSCAASGRTFGVYAMGWYRQAPGKERELVAAIRWSGGGTYYADSVKGRFTISRDNAKNTVYLQMISLKPEDTAVYYCAATFQNSPYTRYTDMYYWGQGTQVTVSS”, the “polyreactivity (PSR sort gate)” value is “low polyreactivity”.

On to “QVQLVESGGGLVQAGGSLRVSCAASGSIFQYYGMGWYRQAPGKERELVAAISRGGSTNYADSVKGRFTISRDYAKNTGYLQMNSLKPEDTAVYYCNARTYRKAYSGYNYWGQGTQVTVSS”, for which the “polyreactivity (PSR sort gate)” value is listed as “high polyreactivity”.

Consider “QVQLVESGGGLVQAGGSLRLSCAASGSIFRKNAMGWSRPAPGKERELVAVSTSSGASTYYADSVKGRFTISRDNAKNTVYVQMNSLKPEETAVYYCNAPSFYTKKMYSWGQGTQVTVSS”, for which the “polyreactivity (PSR sort gate)” value is recorded as “high polyreactivity”.

For the sequence “QVQLVESGGGLVQAGGSLRLSCAASGFIFVDYAMGWYRQAPGTERELVAAITSSGDRTYYADSVKGRFTISRDNAKNTVYLQMNSLKPEDTAVYYCNADWSTAWYTSYDYWGQGTQVTVSS”, the “polyreactivity (PSR sort gate)” value is “low polyreactivity”.

In the case of “QVQLVESGGGLVQAGGSLRLSCAASGFIFSCYAMGWDRQAPGKERELVAAISWSGGSTYYADSVKGRFTISRDNAKNTVYLQMNSLKPEDTAVYYCAADRGYRRLFLNNVDYWGQGTQVTVSS”, the “polyreactivity (PSR sort gate)” value was “high polyreactivity”.

On to “QVQLVESGGGLVQAGGSLRLSCAASGRIFNTYAMGWYRQAPGKERELVARITWSAGRTYYADSVKGRFTISRDNAKNTVYLQMNSLKPEDTAVYYCAAEGFYRSSPVRTYIGYDYWGQGTQVTVSS”, for which the “polyreactivity (PSR sort gate)” value is recorded as “high polyreactivity”.

For “QVQLVESGGGLVQAGGSLRLSCAASGSTSKVYAMGWSRQAPGKERELVAAITFSGGSTYADSVKGRFTISRDNAKNTVYLQMNSLKPEDTAVYYCAVEVPYSWWWLVDYWGQGTLVTVSS”, the “polyreactivity (PSR sort gate)” value is reported as “high polyreactivity”.

For the sequence “QVQLVESGGGLVQAGGSLRLSCAASGFTFPFYAMGWYRQAPGKERELVAPISRSGTRTYYADSVKGRFTISRDNAKNTVYLQMNSLKPEDTAVYYCAAAYHNGYLSEGYWEHYYWGQGTQVTVSS”, the “polyreactivity (PSR sort gate)” value was “high polyreactivity”.

For the sequence “QVQLVESGGGLVQAGGSLRLSCAASGRTFSGYAMGWYRQAPGKERELVAAITSSGSSTYYADSVKGRFTISRDNAKNTVYLQMNSQKPEDTSVYYCAATPQAHSERYYYQRKYDYWGQGTQVTVSS”, the “polyreactivity (PSR sort gate)” value was “low polyreactivity”.

Consider “QVQLVESGGGIVQAGGSLRLSCAASGRTFSTYAMGWYRQAPGKESELVARITSSGGSTYYADSVKGRFTISRDNAKNTVYFQMNSLKPEDTAVYYCAARPLVRYRMQWTGGYYYWGQGTQVTVSS”, for which the “polyreactivity (PSR sort gate)” value is recorded as “high polyreactivity”.

With “QFQLVESGGGLVQAGGSLRLSCAASGVSNALGWYRQAPGKERELVAAISRSGGSTYYADSVKGRFTISRANAKNTVNLQMNSLKPEDTAVYYCAVGYTYVYRYSSHKYDYWGEGTQVTVSS”, the “polyreactivity (PSR sort gate)” value is listed as “high polyreactivity”.

Regarding “QVQLVESGGGLVQAGGSLRLSCAASGSIFTYYAMGWYRQAPGKERELVAAISYSGGTTYYADSVKGRFTISRDNAKNTVYLQMYSLKPEDTAVYYCNVDADYESEWLSVGYDYWGQGTQVTVSS”, the “polyreactivity (PSR sort gate)” value is listed as “low polyreactivity”.

On to “QVQLVESGGGLVQAGGSLRLSCAASGRIFVYNAMGWSRQAPGKVRELVASITSSGGSTSYADSVKGRFTISRDNAKNTVYLQMNSLKPEDTAVYSCAADVQPDTRSTPEMDYWGQGTQVTVSS”, for which the “polyreactivity (PSR sort gate)” value is “low polyreactivity”.

Consider “QVQLVDSRGGLVQAGGSLRLSCAASGSTYLRNVMGSYRQAPGKERELVAAISSRGGSTHYADSVKGRFTISRDNAKNTVYLQMNSMKPEDTAVYYSNAERTAAQYVRAAYDFWGEGTQVTVSS”, for which the “polyreactivity (PSR sort gate)” value was “low polyreactivity”.

On to “QVQLVESGGGLVQAGGSLRLSCAASGSTFAYNAMGWYRQAPGKERELVAAISFSGGSTYYADSVKGRFTLSRDNAKNTVYLQMNSLKQEDTAVYYCAKRGYPSTNGRQEGYWGQGTQVTVSS”, for which the “polyreactivity (PSR sort gate)” value is listed as “low polyreactivity”.

Values taken from the nanobody polyreactivity screen of Harvey et al. (2022).
